Results as given in patent publication US20190352664A1, “COMPOSITIONS AND METHODS FOR CONTROLLING GENE EXPRESSION” (priority 2017, published 2019).

What was measured:
LUC, GFPER, TBF1-YFP = experiment: Transient expression of uORF-controlled LUC, GFPER and TBF1-YFP; type: in vivo, N. benthamiana
LUC reporter = type: in vivo, Oryza sativa cultivar ZH11
Arabidopsis = experiment: Ribo-seq and RNA-seq global translatome profiling (translational efficiency TE, mORF/uORF ribo-shift) upon elf18 treatment; type: in vivo; design: key to score (Ribo-shift): Up: ribo-shift up (i.e., increased mORF/uORF ratio); Down: ribo-shift down (i.e., decreased mORF/uORF ratio); settings: elf18 vs Mock; for score (TE change): translational efficiency fold change, listed as shows 5′ UTR of the transcript
dual luciferase reporter = experiment: Dual luciferase assay (LUC/RLUC), transient expression; type: in vivo, N. benthamiana; settings: 5′ leader sequence reporters

B1: uORFsTBF1: 5′ leader sequence of TBF1 with two pathogen-responsive upstream open reading frames (nucleic acid)
DNA: TCTAGAAACAGCATCCGTTTTTATAATTTAATTTTCTTACAAAGGTAGGACCAACATTTGTGATCTATAAATCTTCCTACTACGTTATATAGAGACCCTTCGACATAACACTTAACTCGTTTATATATTTGTTTTACTTGTTTTGCACATACACACAAAAATAAAAAAGACTTTATATTTATTTACTTTTTAATCACACGGATTAGCTCCGGCGAAGTATGGTCGTCGTCTTCATCTTCTTCCTCCATCATCAGATTTTTCCTTAAATGGAAGAAACCAAACGAAACTCCGATCTTCTCCGTTCTCGTGTTTTCCTCTCTGGCTTTTATTGCTGGGATTGGGAATTTCTCACCGCTCTCTTGCTTTTTAGTTGCTGATTCTTTTTCCTTCGACTTTCTATTTCCAATCTTTCTTCTTCTCTTTGTGTATTAGATTATTTTTAGTTTTATTTTTCTGTGGTAAAATAAAAAAAGTTCGCCGGAG
B1 was tested, and the “suppression of cytosol-synthesized LUC and ER-synthesized GFPER” value (LUC, GFPER, TBF1-YFP; 35S promoter, vs mutant uorfs (ATG to CTG)) was “largely suppress”, the mRNA levels (LUC, GFPER, TBF1-YFP; LUC and GFPER) was “without significantly affecting mRNA levels” and the “cell death induced by overexpression of TBF1 (TBF1-YFP)” value (LUC, GFPER, TBF1-YFP; vs 35S:uorfsTBF1-TBF1-YFP) was “tight enough to prevent cell death”. For the same molecule, the “translation of the LUC reporter in rice” value (LUC reporter; 35S:uORFsTBF1-LUC vs 35S:uorfsTBF1-LUC) was “could suppress translation of the reporter in rice” and the “LUC mRNA levels in rice” value (LUC reporter; in vivo) was “without significantly influencing mRNA levels”.

B2: AT5G61010.1_3: uORF of AT5G61010.1; peptide SEQ ID NO: 38 (nucleic acid)
DNA: ATGTCAACTGGATTAAGCTTAAGTAGTAATGGTTTTTACTATGTTCATGTGGGGATTTCTCTTCCTCTCTGTTTACTTCATTCCGAGATGACTTGA
modifications: listed as DNA, chemistry not fully specified
B2 was tested, and the “score (Ribo-shift)” value (Arabidopsis; shift of mORF/uORF ratio, per uORF) was “Down”.

B3: AT1G30330.1: 5′ UTR of transcript; auxin response factor 6 (nucleic acid)
DNA: CTTCTTCTTCTGATTCTCATTTCAAATAAGAGAGAGAGAGAGAGAAGTAAGTAAAACTTTAGCAGAGAGAAGAATAAACAAATAATTATAGCACCGTCACGTCGCCGCCGTATTTCGTTACCGGAAAAAAAAAATCATTCTTCAACATAAAAATAAAAACAGTCTCTTTCTTTCTATCTTTGTCTATCTTTGATTATTCTCTGTGTACCCATGTTCTGCAACAGTTGAGCAAGTGCATGCCCCATATCTCTCTGTTTCTCATTTCCCGATCTTTGCATTAATCATATACTTCGCCTGAGATCTCGATTAAGCCAGCTTATAGAAGAAGAAACGGCACCAGCTTCTGTCGTTTTAGTTAGCTCGAGATCTGTGTTTCTTTTTTTCTTGGCTTCTGAGCTTTTGGCGGTGGTGGGTTTTTCTGGAGAAACCCAAACGACTATCAAAGTTTTGTTTTTTACAATTTTAAGTGGGAGTTATGAGTGGGGTGGATTAAGTAAGTTACAAGTATGAAGGAGTTGAAGATTCGAAGAAGCGGTTTTGAAGTCGGCGAGACCAAGATTGCGAGCTTATTTGGCTGATGATTTATTTCAGGGAAGAAGAAATAAATCTGTTTTTTTTAGGGTTTTTAGATTTGGTTGGTGAATGGGTGGGAGGTGGAGGGAAACAGTTAAAAAAGTTATGCTTTTAGTGTCTCTTCTTCATAATTACATTTGGGCATCTTGAAATCTTTGGATCTTTGAAGAAACAAAGTTGTGTTTTTTTTTTTGTTCTTTGTTGTTTGCTTTTTAAGTTAGAATAAAAA
For B3, the “score (TE change)” value (Arabidopsis) was “TEdown (389 genes displayed decreased TEfc (|z|≥1.5))”.

B4: AT1G59700.1: 5′ UTR of transcript; glutathione S-transferase TAU16 (nucleic acid)
DNA: ATTGTGTGGTGACAAGCAACACATGATATGTCCGTTTAGAAACAGACAAAATAAGAAGAAGAAGAAAGAGTCGTGGAGGATTCTTCATTCTTCCTCATCCTCTTCTTCACCGATTCATTAGAAACCAAATTACAAAAAAAAACGTCTATACACAAAAAAACAA
With B4 the “score (TE change)” value (Arabidopsis) was “TEdown (389 genes displayed decreased TEfc (|z|≥1.5))”.

B5: ZIK3: R-motif-dependent gene; 5′ leader sequence tested in dual luciferase reporter (nucleic acid, listed as Arabidopsis thaliana)
DNA: ACTTGTTTCCTTATATATTCTTCTCCCTTTAAACATTTAATCTTTTCCTCTTCTACCATCTCCACAAATTCCAAACATCTCTCTCTCTTTCTCTCTCACACACAAAATTGCAGAAGAAGAAGAGTC
modifications: listed as DNA, chemistry not fully specified
With B5 the “TE when PAB2 was co-expressed” value (dual luciferase reporter) was “lower TE”.

B6: AT1G12580.1: 5′ UTR of transcript; phosphoenolpyruvate carboxylase-related kinase 1 (nucleic acid)
DNA: GAGAGAGGACTGGGTCTGGTCTCTTCGCTGCAACCTATAGCTGTTGTTTGCTCTTCGACGGGATTCTCACTACTCTTTTGCCAAAAAAAAGAGATCGGAGGTTCCGAAGGTGAATGCAGCTTGCGATTTCATAGAAAAGAAGATTCGTTTGCTGGATTAGGCTTATTTGTGTATCATAGCTTTGAGGTTTTAACTGAGATTTATTGATAGTGGAACTTAGGTTTTCGAGAGGTGTGAACAGTTGGGTAT
With B6 the “score (TE change)” value (Arabidopsis) was “TEup (448 had increased TEfc)”.

B7: BET10: R-motif-dependent gene; 5′ leader sequence tested in dual luciferase reporter (nucleic acid, listed as Arabidopsis thaliana)
DNA: TTAGGGACGGGACACTAGAGAAGGGAGGGCAGAGAGCGATTTTGTTCTCTCTCTACTTCTCGGTCGTCTTCTTCGTCTCCACTCTAGGGTTTTACTCTATCTTCTTCTTCATCATCATCTTCTACACCAATCTCTAGCGTTAATCTGTTTCTGCTGGAGAAGATTTACGCTTGTTCCTCGGTTCTCTTACTTCTGCTCCGGTTCGATCGCTTGCTAAGTGTTTCGAGTTGGTTCGCACTTCGGTGGGCGATATC
For B7, the “TE when PAB2 was co-expressed” value (dual luciferase reporter) was “lower TE”.

B8: AT5G61010.1: 5′ UTR of transcript; exocyst subunit exo70 family protein E2 (nucleic acid)
DNA: TCTTTCCCTTCTTCTTCCCCAATAATCTCGCTGAAACTCTCTTGCTCTTGCTTCTAAAAATCTGTTCTTTGAGACTTTGATCACACAGTTATCAAAATCATAATCTCTTCTTTCCTGGTTTTTTTTTTTTTCTTCTTCTTCTTCCCGTTTCACGGTACGTTTACTCTGTTCGATCACCGAGTGTATGATAAAATGTTTCTGTGAAATCAAATAACATATCACTTTCTAATAAACATCAAAATTTCTCCTTTTTTACAGAAACAAGAAGTTTTTTTGGGAAAGCCGTTGACTTGACTTTTTCTTTGGGGTGTTGTGTGGGAGCTTATAGTATGGTACCATAAGTGGGAGCTTATAGTTTGGGGTGTTGTGTGGGAGCTTATAGTATGAGGAAAAATGTTAGATTTGAAGAATGCTTCACTGATTTTTTACCATAAGTATGTCAACTGGATTAAGCTTAAGTAGTAATGGTTTTTACTATGTTCATGTGGGGATTTCTCTTCCTCTCTGTTTACTTCATTCCGAGATGACTTGAGATTTTTTCAAAGTATAGTTCTTGGAGTTAAGCTTACCTAGTAATCACTTTATATAACATCCCTTCGTTTACATTTGTGCTTTCACCTGGAAACACTTTAGACTTTTCTCTCTTCTGCCGTGTGTATTTAGTTGTCTAGTCAAATTTAAGTTGAGTTTAGGCTCTAGTCTTTGGTTTTGGTT
For B8, the “score (TE change)” value (Arabidopsis) was “TEdown (389 genes displayed decreased TEfc (|z|≥1.5))”.
